{"source": "paper PMC9482650", "about": "“Quantitative fragmentomics allow affinity mapping of interactomes” (Nature Communications, 2022)", "binders": {"B1": {"name": "KCNT1, Q5JUK3 (peptide)", "chain": "NPETRDETQL"}, "B2": {"name": "GAGE12J, A6NER3 (peptide)", "chain": "PEEGKKQSQC"}}, "note": "Residue numbers refer to the chain shown, from its start.", "data": [{"target": "PDZRN4_1, Q6ZMN7", "sequence (Q6ZMN7 213-318)": "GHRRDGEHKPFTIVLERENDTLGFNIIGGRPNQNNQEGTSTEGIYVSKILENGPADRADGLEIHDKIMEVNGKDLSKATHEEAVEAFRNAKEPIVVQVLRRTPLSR", "experiment": "holdup assay", "parameters": "key: below the threshold = too weak to quantify, mostly under pKd 3.1 to 4", "settings": "plain residues with an end cap or a label only (N-terminal biotin on a linker: ado-ado)", "values": [{"binder": "B1", "pKd": 4.69}, {"binder": "B2", "pKd": "below the threshold"}]}, {"target": "LDB3, O75112", "sequence (O75112 1-94)": "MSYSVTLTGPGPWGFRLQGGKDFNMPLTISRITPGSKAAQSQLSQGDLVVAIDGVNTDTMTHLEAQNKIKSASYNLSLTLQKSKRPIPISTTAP", "experiment": "holdup assay", "parameters": "key: below the threshold = too weak to quantify, mostly under pKd 3.1 to 4", "settings": "plain residues with an end cap or a label only (N-terminal biotin on a linker: ado-ado)", "values": [{"binder": "B1", "pKd": "below the threshold"}, {"binder": "B2", "pKd": "below the threshold"}]}, {"target": "T1, LIN7B, Q9HAP6", "T1 sequence (Q9HAP6 88-185, limits assumed, looked up)": "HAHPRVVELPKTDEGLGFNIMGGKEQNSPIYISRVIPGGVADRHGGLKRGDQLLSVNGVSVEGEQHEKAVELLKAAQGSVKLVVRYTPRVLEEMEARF", "experiment": "holdup assay", "parameters": "key: below the threshold = too weak to quantify, mostly under pKd 3.1 to 4", "settings": "plain residues with an end cap or a label only (N-terminal biotin on a linker: ado-ado)", "values": [{"binder": "B1", "pKd": "below the threshold"}, {"binder": "B2", "pKd": 3.74}]}, {"target": "GRIP2_7, Q9C0E4", "sequence (Q9C0E4 934-1023)": "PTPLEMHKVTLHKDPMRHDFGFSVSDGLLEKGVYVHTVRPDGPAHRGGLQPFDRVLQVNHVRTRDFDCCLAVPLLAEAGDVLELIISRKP", "experiment": "holdup assay", "parameters": "key: below the threshold = too weak to quantify, mostly under pKd 3.1 to 4", "settings": "plain residues with an end cap or a label only (N-terminal biotin on a linker: ado-ado)", "values": [{"binder": "B1", "pKd": "below the threshold"}, {"binder": "B2", "pKd": "below the threshold"}]}, {"target": "Inadl_5, Q8NI35", "sequence (Q8NI35 673-780)": "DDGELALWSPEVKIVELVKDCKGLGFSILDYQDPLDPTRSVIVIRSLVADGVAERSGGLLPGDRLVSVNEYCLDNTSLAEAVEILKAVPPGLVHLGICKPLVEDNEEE", "experiment": "holdup assay", "parameters": "key: below the threshold = too weak to quantify, mostly under pKd 3.1 to 4", "settings": "plain residues with an end cap or a label only (N-terminal biotin on a linker: ado-ado)", "values": [{"binder": "B1", "pKd": "below the threshold"}, {"binder": "B2", "pKd": "below the threshold"}]}, {"target": "T2, NHERF3_3, Q5T2W1", "T2 sequence (Q5T2W1 238-333, limits assumed, looked up)": "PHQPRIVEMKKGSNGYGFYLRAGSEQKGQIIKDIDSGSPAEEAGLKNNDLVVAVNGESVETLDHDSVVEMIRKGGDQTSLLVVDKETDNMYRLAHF", "experiment": "holdup assay", "parameters": "key: below the threshold = too weak to quantify, mostly under pKd 3.1 to 4", "settings": "plain residues with an end cap or a label only (N-terminal biotin on a linker: ado-ado)", "values": [{"binder": "B1", "pKd": "below the threshold"}, {"binder": "B2", "pKd": "below the threshold"}]}, {"target": "Inadl_10, Q8NI35", "sequence (Q8NI35 1673-1763)": "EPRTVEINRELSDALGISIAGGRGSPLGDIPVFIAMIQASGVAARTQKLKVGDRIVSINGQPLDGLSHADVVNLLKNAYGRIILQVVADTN", "experiment": "holdup assay", "parameters": "key: below the threshold = too weak to quantify, mostly under pKd 3.1 to 4", "settings": "plain residues with an end cap or a label only (N-terminal biotin on a linker: ado-ado)", "values": [{"binder": "B1", "pKd": "below the threshold"}, {"binder": "B2", "pKd": "below the threshold"}]}, {"target": "MAGI2_4, Q86UL8", "sequence (Q86UL8 772-865)": "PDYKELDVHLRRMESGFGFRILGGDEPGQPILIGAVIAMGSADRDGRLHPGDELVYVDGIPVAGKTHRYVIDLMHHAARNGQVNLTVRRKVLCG", "experiment": "holdup assay", "parameters": "key: below the threshold = too weak to quantify, mostly under pKd 3.1 to 4", "settings": "plain residues with an end cap or a label only (N-terminal biotin on a linker: ado-ado)", "values": [{"binder": "B1", "pKd": "below the threshold"}, {"binder": "B2", "pKd": "below the threshold"}]}, {"target": "T3, APBA2_2, Q99767", "T3 sequence (Q99767 654-744, limits assumed, looked up)": "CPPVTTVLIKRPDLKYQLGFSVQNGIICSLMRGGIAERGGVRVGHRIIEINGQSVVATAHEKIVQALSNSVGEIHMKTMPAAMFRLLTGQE", "experiment": "holdup assay", "parameters": "key: below the threshold = too weak to quantify, mostly under pKd 3.1 to 4", "settings": "plain residues with an end cap or a label only (N-terminal biotin on a linker: ado-ado)", "values": [{"binder": "B1", "pKd": "below the threshold"}, {"binder": "B2", "pKd": "below the threshold"}]}, {"target": "T4, LIN7C, Q9NUP9", "T4 sequence (Q9NUP9 88-185, limits assumed, looked up)": "T1 sequence (Q9HAP6 88-185, limits assumed, looked up) with A2S, D13E, V35I, V40I, Q65H, S79K, R89K, A96S", "experiment": "holdup assay", "parameters": "key: below the threshold = too weak to quantify, mostly under pKd 3.1 to 4", "settings": "plain residues with an end cap or a label only (N-terminal biotin on a linker: ado-ado)", "values": [{"binder": "B1", "pKd": 3.68}, {"binder": "B2", "pKd": "below the threshold"}]}, {"target": "T5, MPDZ_5, O75970", "T5 sequence (O75970 695-796, limits assumed, looked up)": "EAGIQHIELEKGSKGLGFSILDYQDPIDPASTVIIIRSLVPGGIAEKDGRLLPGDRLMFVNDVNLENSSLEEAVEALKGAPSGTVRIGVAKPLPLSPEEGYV", "experiment": "holdup assay", "parameters": "key: below the threshold = too weak to quantify, mostly under pKd 3.1 to 4", "settings": "plain residues with an end cap or a label only (N-terminal biotin on a linker: ado-ado)", "values": [{"binder": "B1", "pKd": "below the threshold"}, {"binder": "B2", "pKd": "below the threshold"}]}, {"target": "FRMPD3, Q5JV73", "sequence (Q5JV73 12-100)": "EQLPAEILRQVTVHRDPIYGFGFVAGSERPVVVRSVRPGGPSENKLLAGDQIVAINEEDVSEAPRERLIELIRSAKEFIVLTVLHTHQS", "experiment": "holdup assay", "parameters": "key: below the threshold = too weak to quantify, mostly under pKd 3.1 to 4", "settings": "plain residues with an end cap or a label only (N-terminal biotin on a linker: ado-ado)", "values": [{"binder": "B1", "pKd": "below the threshold"}, {"binder": "B2", "pKd": "below the threshold"}]}, {"target": "MAGI2_3, Q86UL8", "sequence (Q86UL8 600-682)": "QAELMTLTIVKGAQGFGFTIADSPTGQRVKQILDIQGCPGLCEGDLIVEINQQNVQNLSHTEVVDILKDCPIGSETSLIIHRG", "experiment": "holdup assay", "parameters": "key: below the threshold = too weak to quantify, mostly under pKd 3.1 to 4", "settings": "plain residues with an end cap or a label only (N-terminal biotin on a linker: ado-ado)", "values": [{"binder": "B1", "pKd": 3.52}, {"binder": "B2", "pKd": 3.58}]}, {"target": "LAP2, Q96RT1", "sequence (Q96RT1 other isoform, or with tags, fused parts or gaps)": "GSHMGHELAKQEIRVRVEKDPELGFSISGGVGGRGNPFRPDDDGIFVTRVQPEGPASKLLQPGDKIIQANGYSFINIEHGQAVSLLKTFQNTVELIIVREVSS", "experiment": "holdup assay", "parameters": "key: below the threshold = too weak to quantify, mostly under pKd 3.1 to 4", "settings": "plain residues with an end cap or a label only (N-terminal biotin on a linker: ado-ado)", "values": [{"binder": "B1", "pKd": "below the threshold"}, {"binder": "B2", "pKd": "below the threshold"}]}, {"target": "PDLIM1, O00151", "sequence (O00151 1-87)": "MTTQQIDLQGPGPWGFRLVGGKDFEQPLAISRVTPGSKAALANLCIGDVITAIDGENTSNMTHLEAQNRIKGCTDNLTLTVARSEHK", "experiment": "holdup assay", "parameters": "key: below the threshold = too weak to quantify, mostly under pKd 3.1 to 4", "settings": "plain residues with an end cap or a label only (N-terminal biotin on a linker: ado-ado)", "values": [{"binder": "B1", "pKd": "below the threshold"}, {"binder": "B2", "pKd": "below the threshold"}]}, {"target": "IL16_4, Q14005", "sequence (Q14005 1229-1329)": "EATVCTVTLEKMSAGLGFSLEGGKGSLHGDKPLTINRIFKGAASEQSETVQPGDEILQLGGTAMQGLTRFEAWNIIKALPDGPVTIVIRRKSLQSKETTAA", "experiment": "holdup assay", "parameters": "key: below the threshold = too weak to quantify, mostly under pKd 3.1 to 4", "settings": "plain residues with an end cap or a label only (N-terminal biotin on a linker: ado-ado)", "values": [{"binder": "B1", "pKd": "below the threshold"}, {"binder": "B2", "pKd": 3.69}]}, {"target": "HTRA1, Q92743", "sequence (Q92743 360-477)": "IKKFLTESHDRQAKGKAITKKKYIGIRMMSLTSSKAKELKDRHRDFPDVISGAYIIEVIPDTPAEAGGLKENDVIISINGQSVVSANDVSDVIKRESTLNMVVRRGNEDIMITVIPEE", "experiment": "holdup assay", "parameters": "key: below the threshold = too weak to quantify, mostly under pKd 3.1 to 4", "settings": "plain residues with an end cap or a label only (N-terminal biotin on a linker: ado-ado)", "values": [{"binder": "B1", "pKd": "below the threshold"}, {"binder": "B2", "pKd": "below the threshold"}]}, {"target": "IL16_1, Q14005", "sequence (Q14005 210-306)": "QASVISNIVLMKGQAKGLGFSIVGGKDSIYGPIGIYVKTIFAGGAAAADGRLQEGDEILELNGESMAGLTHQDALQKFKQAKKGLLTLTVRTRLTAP", "experiment": "holdup assay", "parameters": "key: below the threshold = too weak to quantify, mostly under pKd 3.1 to 4", "settings": "plain residues with an end cap or a label only (N-terminal biotin on a linker: ado-ado)", "values": [{"binder": "B1", "pKd": "below the threshold"}, {"binder": "B2", "pKd": "below the threshold"}]}, {"target": "DLG4_3, P78352", "sequence (P78352 306-403)": "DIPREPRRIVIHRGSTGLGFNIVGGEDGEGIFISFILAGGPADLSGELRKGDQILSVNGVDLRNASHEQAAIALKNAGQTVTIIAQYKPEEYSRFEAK", "experiment": "holdup assay", "parameters": "key: below the threshold = too weak to quantify, mostly under pKd 3.1 to 4", "settings": "plain residues with an end cap or a label only (N-terminal biotin on a linker: ado-ado)", "values": [{"binder": "B1", "pKd": "below the threshold"}, {"binder": "B2", "pKd": 3.75}]}, {"target": "AHNAK1, Q09666", "sequence (Q09666 4-100)": "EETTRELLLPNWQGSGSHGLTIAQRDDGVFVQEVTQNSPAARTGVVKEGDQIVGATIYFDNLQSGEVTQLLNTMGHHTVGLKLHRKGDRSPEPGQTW", "experiment": "holdup assay", "parameters": "key: below the threshold = too weak to quantify, mostly under pKd 3.1 to 4", "settings": "plain residues with an end cap or a label only (N-terminal biotin on a linker: ado-ado)", "values": [{"binder": "B1", "pKd": "below the threshold"}, {"binder": "B2", "pKd": "below the threshold"}]}, {"target": "LNX1_3, Q8TBB1", "sequence (Q8TBB1 500-596)": "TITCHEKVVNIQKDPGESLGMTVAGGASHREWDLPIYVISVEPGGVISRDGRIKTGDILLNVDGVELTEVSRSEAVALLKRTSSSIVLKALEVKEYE", "experiment": "holdup assay", "parameters": "key: below the threshold = too weak to quantify, mostly under pKd 3.1 to 4", "settings": "plain residues with an end cap or a label only (N-terminal biotin on a linker: ado-ado)", "values": [{"binder": "B1", "pKd": "below the threshold"}, {"binder": "B2", "pKd": "below the threshold"}]}, {"target": "DLG4_2, P78352", "sequence (P78352 155-259)": "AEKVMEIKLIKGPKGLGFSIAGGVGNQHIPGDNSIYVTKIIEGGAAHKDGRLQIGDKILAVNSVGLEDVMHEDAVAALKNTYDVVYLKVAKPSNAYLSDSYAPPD", "experiment": "holdup assay", "parameters": "key: below the threshold = too weak to quantify, mostly under pKd 3.1 to 4", "settings": "plain residues with an end cap or a label only (N-terminal biotin on a linker: ado-ado)", "values": [{"binder": "B1", "pKd": 3.59}, {"binder": "B2", "pKd": 3.59}]}, {"target": "T6, APBA3_1, O96018", "T6 sequence (O96018 389-490, limits assumed, looked up)": "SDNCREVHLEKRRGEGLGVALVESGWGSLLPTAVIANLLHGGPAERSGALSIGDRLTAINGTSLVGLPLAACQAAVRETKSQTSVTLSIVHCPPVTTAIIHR", "experiment": "holdup assay", "parameters": "key: below the threshold = too weak to quantify, mostly under pKd 3.1 to 4", "settings": "plain residues with an end cap or a label only (N-terminal biotin on a linker: ado-ado)", "values": [{"binder": "B1", "pKd": "below the threshold"}, {"binder": "B2", "pKd": "below the threshold"}]}, {"target": "ARHGEF12, Q9NZN5-2", "sequence (Q9NZN5 other isoform, or with tags, fused parts or gaps)": "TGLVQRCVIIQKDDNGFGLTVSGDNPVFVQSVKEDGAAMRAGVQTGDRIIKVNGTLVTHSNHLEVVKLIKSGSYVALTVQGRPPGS", "experiment": "holdup assay", "parameters": "key: below the threshold = too weak to quantify, mostly under pKd 3.1 to 4", "settings": "plain residues with an end cap or a label only (N-terminal biotin on a linker: ado-ado)", "values": [{"binder": "B1", "pKd": 4.36}, {"binder": "B2", "pKd": 3.84}]}, {"target": "T7, PDZD7_3, Q9H5P4", "T7 sequence (Q9H5P4 857-944, limits assumed, looked up)": "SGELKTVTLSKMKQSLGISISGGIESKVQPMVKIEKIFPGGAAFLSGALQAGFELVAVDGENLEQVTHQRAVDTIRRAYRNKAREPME", "experiment": "holdup assay", "parameters": "key: below the threshold = too weak to quantify, mostly under pKd 3.1 to 4", "settings": "plain residues with an end cap or a label only (N-terminal biotin on a linker: ado-ado)", "values": [{"binder": "B1", "pKd": 4.66}, {"binder": "B2", "pKd": "below the threshold"}]}, {"target": "T8, GRIP1_4, Q9Y3R0", "T8 sequence (Q9Y3R0 467-571, limits assumed, looked up)": "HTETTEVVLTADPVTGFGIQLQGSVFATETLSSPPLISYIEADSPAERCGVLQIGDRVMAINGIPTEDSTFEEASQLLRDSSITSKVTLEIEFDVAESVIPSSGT", "experiment": "holdup assay", "parameters": "key: below the threshold = too weak to quantify, mostly under pKd 3.1 to 4", "settings": "plain residues with an end cap or a label only (N-terminal biotin on a linker: ado-ado)", "values": [{"binder": "B1", "pKd": "below the threshold"}, {"binder": "B2", "pKd": "below the threshold"}]}, {"target": "DLG1_1, Q12959", "experiment": "holdup assay", "parameters": "key: below the threshold = too weak to quantify, mostly under pKd 3.1 to 4", "settings": "plain residues with an end cap or a label only (N-terminal biotin on a linker: ado-ado)", "values": [{"binder": "B1", "pKd": "below the threshold"}, {"binder": "B2", "pKd": "below the threshold"}]}, {"target": "DLG2_2, Q15700", "sequence (Q15700 189-283)": "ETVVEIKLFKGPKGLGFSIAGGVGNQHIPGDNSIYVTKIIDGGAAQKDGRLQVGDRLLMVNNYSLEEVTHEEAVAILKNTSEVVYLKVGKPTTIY", "experiment": "holdup assay", "parameters": "key: below the threshold = too weak to quantify, mostly under pKd 3.1 to 4", "settings": "plain residues with an end cap or a label only (N-terminal biotin on a linker: ado-ado)", "values": [{"binder": "B1", "pKd": "below the threshold"}, {"binder": "B2", "pKd": "below the threshold"}]}, {"target": "T9, HTRA3, P83110", "T9 sequence (P83110 354-453, limits assumed, looked up)": "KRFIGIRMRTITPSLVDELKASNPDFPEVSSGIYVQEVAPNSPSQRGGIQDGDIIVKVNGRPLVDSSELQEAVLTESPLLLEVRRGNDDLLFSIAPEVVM", "experiment": "holdup assay", "parameters": "key: below the threshold = too weak to quantify, mostly under pKd 3.1 to 4", "settings": "plain residues with an end cap or a label only (N-terminal biotin on a linker: ado-ado)", "values": [{"binder": "B1", "pKd": "below the threshold"}, {"binder": "B2", "pKd": "below the threshold"}]}]}
